Holding throughout (test): other fluorescence titration
Experiment [1] has as its target recombinant His-tagged human cyclin A2 (sequence 174-432) (human) (UniProt P20248).
The target is the same in experiment [2]. This is another data set of the same source.
Experiment [3] has the same target. The source holds these as a separate data set.
The target is the same in experiment [4]. The source holds these as a separate data set.
The target is the same in experiment [5]. The source holds these as a separate data set.
Experiment [6] shares this target. The source holds these as a separate data set.
Experiment [7] shares this target. The source holds these as a separate data set.

Read-outs that look alike come from different tables or passages of the source. *: point of attachment. X2 = 4‑((4-methylpiperazin-1-yl)methyl)benzoic acid, CN1CCN(Cc2ccc(C(=O)*)cc2)CC1

UniProt P20248, sequence (P20248 174-432): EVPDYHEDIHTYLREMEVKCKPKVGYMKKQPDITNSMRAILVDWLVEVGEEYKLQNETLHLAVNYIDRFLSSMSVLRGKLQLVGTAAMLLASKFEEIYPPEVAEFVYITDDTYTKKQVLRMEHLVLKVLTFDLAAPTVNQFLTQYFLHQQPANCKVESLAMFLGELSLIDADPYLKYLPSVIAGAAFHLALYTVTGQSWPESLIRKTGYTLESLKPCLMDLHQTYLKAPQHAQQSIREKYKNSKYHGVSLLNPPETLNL

B1: SCCP5921: 4-((4-methylpiperazin-1-yl)methyl)benzoic acid ligated to the p21 C-terminus, RLIF (peptide)
peptide: X2-RLIF-NH2
One may read the Kd as the free concentration of one partner at which half of the binding sites on the other are occupied at equilibrium, for simple one-to-one binding. Turning to B1, the Kd in experiment [1] turned out to be 5.44 µM; in experiment [2], 4.77 µM; in experiment [3], 6.59 µM; in experiment [4], 3.21 µM; in experiment [5], 3.55 µM; in experiment [6], 5.28 µM. The Kd in experiment [7] was found to be 6.77 µM.

(Values after PMC4456239.)
